Results on one substance are retold here after publication PMC9765406.

For test [1], the target named is BfpD, type IV pilus (bundle-forming pilus) extension ATPase from enteropathogenic Escherichia coli (enteropathogenic Escherichia coli (EPEC)). Put plainly: negative-stain electron microscopy with reference-free 2D averaging.
Test [2] has the same target. Put plainly: cryo-EM structure.

As for “BfpD, type IV pilus (bundle-forming pilus) extension ATPase from enteropathogenic Escherichia coli (enzyme)”, the stoichiometry N in test [1] and in test [2] was 6 each time.
